Test [1] deals with H2A–H2B dimer (Xenopus laevis) (UniProt P06897). The test is described as follows: FRET or BRET.
For test [2], the target named is Nucleosome Assembly Protein 1 (Nap1) (UniProt P25293). The test is described as follows: FRET or BRET. For orientation: Bioluminescence resonance energy transfer reports proximity on the nanometre scale.

By Kd is commonly meant the free concentration of one partner at which half of the binding sites on the other are occupied at equilibrium, for simple one-to-one binding. A high value points to a looser complex. In test [1], “tetrasome with the fluorescent label on H4 (from UniProt P62799 1-103) (complex)” yielded a Kd of 35 nM. With “(H3K56ac-H4)2 tetramer (from UniProt P62799 1-103) (complex)”, the Kd in test [2] turned out to be 11 nM. This lies in the double-digit nanomolar range.
